Reference: patent US7939292B2, “Modified heparinase III and methods of sequencing therewith” (Massachusetts Institute of Technology, priority 2000, dated 2011)
Entries after “also recorded” stand apart in the source; their conditions may differ.

Experiment: Heparinase III kinetic assay of r-heparinase III and histidine mutants
Assay type: biochemical
Conditions: for kcat / Km: heparan sulfate; for Km: calculated assuming a molecular weight of 15 kDa; for enzymatic activity towards heparan sulfate: kinetic data and exhaustive digest profile
Description: The activity of heparinase III was measured using a UV 232 nm assay similar to those reported for heparinase I and heparinase II (Godavarti, R., Cooney, C. L., Langer, R., and Sasisekharan, R. (1996) Biochemistry 35, 6846-52; Shriver, Z., Hu, Y., and Sasisekharan, R. (1998) J. Biol. Chem. 273, 10160-67; and Lohse, D. and Linhardt, R. J. (1992) J. Biol. Chem. 267, 781-87). Briefly, the increase in absorbance at 232 nm as a function of time was monitored under saturating substrate conditions. All assays were performed with heparan sulfate at a concentration of 2 mg/ml in 50 mM sodium phosphate, pH 7.6. The temperature for enzymatic activity measurements was kept constant at 35° C.
In parallel to the mapping studies and to confirm the results of the chemical modification experiments, each of the thirteen histidine residues present in heparinase III was mutated to alanine. The recombinant heparinase III mutant proteins were expressed, purified, and assessed for enzymatic activity towards heparan sulfate (Table 2).

Molecule	changes in recombinant protein yield, enzyme activity, or kinetic parameters compared with r-heparinase III	kcat [s⁻¹]	Km [µM]	enzymatic activity towards heparan sulfate
H539A: recombinant heparinase III with histidine 539 mutated to alanine (protein) MTTKIFKRIIVFAVIALSSGNILAQSSSITRKDFDHINLEYSGLEKVNKAVAAGNYDDAAKALLAYYREKSKAREPDFSNAEKPADIRQPIDKVTREMADKALVHQFQPHKGYGYFDYGKDINWQMWPVKDNEVRWQLHRVKWWQAMALVYHATGDEKYAREWVYQYSDWARKNPLGLSQDNDKFVWRPLEVSDRVQSLPPTFSLFVNSPAFTPAFLMEFLNSYHQQADYLSTHYAEQGNHRLFEAQRNLFAGVSFPEFKDSPRWRQTGISVLNTEIKKQVYADGMQFELSPIYHVAAIDIFLKAYGSAKRVNLEKEFPQSYVQTVENMIMALISISLPDYNTPMFGDSWITDKNFRMAQFASWARVFPANQAIKYFATDGKQGKAPNFLSKALSNAGFYTFRSGWDKNATVMVLKASPPGEFHAQPDNGTFELFIKGRNFTPDAGVFVYSGDEAIMKLRNWYRQTRIHSTLTLDNQNMVITKARQNKWETGNNLDVLTYTNPSYPNLDHQRSVLFINKKYFLVIDRAIGEATGNLGVAWQLKEDSNPVFDKTKNRVYTTYRDGNNLMIQSLNADRTSLNEEEGKVSYVYNKELKRPAFVFEKPKKNAGTQNFVSIVYPYDGQKAPEISIRENKGNDFEKGKLNLTLTINGKQQLVLVP	no significant changes	132	92	–
H225A: recombinant heparinase III with histidine 225 mutated to alanine (protein) MTTKIFKRIIVFAVIALSSGNILAQSSSITRKDFDHINLEYSGLEKVNKAVAAGNYDDAAKALLAYYREKSKAREPDFSNAEKPADIRQPIDKVTREMADKALVHQFQPHKGYGYFDYGKDINWQMWPVKDNEVRWQLHRVKWWQAMALVYHATGDEKYAREWVYQYSDWARKNPLGLSQDNDKFVWRPLEVSDRVQSLPPTFSLFVNSPAFTPAFLMEFLNSYAQQADYLSTHYAEQGNHRLFEAQRNLFAGVSFPEFKDSPRWRQTGISVLNTEIKKQVYADGMQFELSPIYHVAAIDIFLKAYGSAKRVNLEKEFPQSYVQTVENMIMALISISLPDYNTPMFGDSWITDKNFRMAQFASWARVFPANQAIKYFATDGKQGKAPNFLSKALSNAGFYTFRSGWDKNATVMVLKASPPGEFHAQPDNGTFELFIKGRNFTPDAGVFVYSGDEAIMKLRNWYRQTRIHSTLTLDNQNMVITKARQNKWETGNNLDVLTYTNPSYPNLDHQRSVLFINKKYFLVIDRAIGEATGNLGVHWQLKEDSNPVFDKTKNRVYTTYRDGNNLMIQSLNADRTSLNEEEGKVSYVYNKELKRPAFVFEKPKKNAGTQNFVSIVYPYDGQKAPEISIRENKGNDFEKGKLNLTLTINGKQQLVLVP	no significant changes	22	80	–
H295A: recombinant heparinase III with histidine 295 mutated to alanine (protein) MTTKIFKRIIVFAVIALSSGNILAQSSSITRKDFDHINLEYSGLEKVNKAVAAGNYDDAAKALLAYYREKSKAREPDFSNAEKPADIRQPIDKVTREMADKALVHQFQPHKGYGYFDYGKDINWQMWPVKDNEVRWQLHRVKWWQAMALVYHATGDEKYAREWVYQYSDWARKNPLGLSQDNDKFVWRPLEVSDRVQSLPPTFSLFVNSPAFTPAFLMEFLNSYHQQADYLSTHYAEQGNHRLFEAQRNLFAGVSFPEFKDSPRWRQTGISVLNTEIKKQVYADGMQFELSPIYAVAAIDIFLKAYGSAKRVNLEKEFPQSYVQTVENMIMALISISLPDYNTPMFGDSWITDKNFRMAQFASWARVFPANQAIKYFATDGKQGKAPNFLSKALSNAGFYTFRSGWDKNATVMVLKASPPGEFHAQPDNGTFELFIKGRNFTPDAGVFVYSGDEAIMKLRNWYRQTRIHSTLTLDNQNMVITKARQNKWETGNNLDVLTYTNPSYPNLDHQRSVLFINKKYFLVIDRAIGEATGNLGVHWQLKEDSNPVFDKTKNRVYTTYRDGNNLMIQSLNADRTSLNEEEGKVSYVYNKELKRPAFVFEKPKKNAGTQNFVSIVYPYDGQKAPEISIRENKGNDFEKGKLNLTLTINGKQQLVLVP	–	–	–	completely inactive; also recorded: no enzymatic activity
H510A: recombinant heparinase III with histidine 510 mutated to alanine (protein) MTTKIFKRIIVFAVIALSSGNILAQSSSITRKDFDHINLEYSGLEKVNKAVAAGNYDDAAKALLAYYREKSKAREPDFSNAEKPADIRQPIDKVTREMADKALVHQFQPHKGYGYFDYGKDINWQMWPVKDNEVRWQLHRVKWWQAMALVYHATGDEKYAREWVYQYSDWARKNPLGLSQDNDKFVWRPLEVSDRVQSLPPTFSLFVNSPAFTPAFLMEFLNSYHQQADYLSTHYAEQGNHRLFEAQRNLFAGVSFPEFKDSPRWRQTGISVLNTEIKKQVYADGMQFELSPIYHVAAIDIFLKAYGSAKRVNLEKEFPQSYVQTVENMIMALISISLPDYNTPMFGDSWITDKNFRMAQFASWARVFPANQAIKYFATDGKQGKAPNFLSKALSNAGFYTFRSGWDKNATVMVLKASPPGEFHAQPDNGTFELFIKGRNFTPDAGVFVYSGDEAIMKLRNWYRQTRIHSTLTLDNQNMVITKARQNKWETGNNLDVLTYTNPSYPNLDAQRSVLFINKKYFLVIDRAIGEATGNLGVHWQLKEDSNPVFDKTKNRVYTTYRDGNNLMIQSLNADRTSLNEEEGKVSYVYNKELKRPAFVFEKPKKNAGTQNFVSIVYPYDGQKAPEISIRENKGNDFEKGKLNLTLTINGKQQLVLVP	no significant changes	–	–	completely inactive; also recorded: no enzymatic activity
H234A: recombinant heparinase III with histidine 234 mutated to alanine (protein) MTTKIFKRIIVFAVIALSSGNILAQSSSITRKDFDHINLEYSGLEKVNKAVAAGNYDDAAKALLAYYREKSKAREPDFSNAEKPADIRQPIDKVTREMADKALVHQFQPHKGYGYFDYGKDINWQMWPVKDNEVRWQLHRVKWWQAMALVYHATGDEKYAREWVYQYSDWARKNPLGLSQDNDKFVWRPLEVSDRVQSLPPTFSLFVNSPAFTPAFLMEFLNSYHQQADYLSTAYAEQGNHRLFEAQRNLFAGVSFPEFKDSPRWRQTGISVLNTEIKKQVYADGMQFELSPIYHVAAIDIFLKAYGSAKRVNLEKEFPQSYVQTVENMIMALISISLPDYNTPMFGDSWITDKNFRMAQFASWARVFPANQAIKYFATDGKQGKAPNFLSKALSNAGFYTFRSGWDKNATVMVLKASPPGEFHAQPDNGTFELFIKGRNFTPDAGVFVYSGDEAIMKLRNWYRQTRIHSTLTLDNQNMVITKARQNKWETGNNLDVLTYTNPSYPNLDHQRSVLFINKKYFLVIDRAIGEATGNLGVHWQLKEDSNPVFDKTKNRVYTTYRDGNNLMIQSLNADRTSLNEEEGKVSYVYNKELKRPAFVFEKPKKNAGTQNFVSIVYPYDGQKAPEISIRENKGNDFEKGKLNLTLTINGKQQLVLVP	no significant changes	23	75	–
H36A: recombinant heparinase III with histidine 36 mutated to alanine (protein) MTTKIFKRIIVFAVIALSSGNILAQSSSITRKDFDAINLEYSGLEKVNKAVAAGNYDDAAKALLAYYREKSKAREPDFSNAEKPADIRQPIDKVTREMADKALVHQFQPHKGYGYFDYGKDINWQMWPVKDNEVRWQLHRVKWWQAMALVYHATGDEKYAREWVYQYSDWARKNPLGLSQDNDKFVWRPLEVSDRVQSLPPTFSLFVNSPAFTPAFLMEFLNSYHQQADYLSTHYAEQGNHRLFEAQRNLFAGVSFPEFKDSPRWRQTGISVLNTEIKKQVYADGMQFELSPIYHVAAIDIFLKAYGSAKRVNLEKEFPQSYVQTVENMIMALISISLPDYNTPMFGDSWITDKNFRMAQFASWARVFPANQAIKYFATDGKQGKAPNFLSKALSNAGFYTFRSGWDKNATVMVLKASPPGEFHAQPDNGTFELFIKGRNFTPDAGVFVYSGDEAIMKLRNWYRQTRIHSTLTLDNQNMVITKARQNKWETGNNLDVLTYTNPSYPNLDHQRSVLFINKKYFLVIDRAIGEATGNLGVHWQLKEDSNPVFDKTKNRVYTTYRDGNNLMIQSLNADRTSLNEEEGKVSYVYNKELKRPAFVFEKPKKNAGTQNFVSIVYPYDGQKAPEISIRENKGNDFEKGKLNLTLTINGKQQLVLVP	no significant changes	86	98	–
H152A: recombinant heparinase III with histidine 152 mutated to alanine (protein) MTTKIFKRIIVFAVIALSSGNILAQSSSITRKDFDHINLEYSGLEKVNKAVAAGNYDDAAKALLAYYREKSKAREPDFSNAEKPADIRQPIDKVTREMADKALVHQFQPHKGYGYFDYGKDINWQMWPVKDNEVRWQLHRVKWWQAMALVYAATGDEKYAREWVYQYSDWARKNPLGLSQDNDKFVWRPLEVSDRVQSLPPTFSLFVNSPAFTPAFLMEFLNSYHQQADYLSTHYAEQGNHRLFEAQRNLFAGVSFPEFKDSPRWRQTGISVLNTEIKKQVYADGMQFELSPIYHVAAIDIFLKAYGSAKRVNLEKEFPQSYVQTVENMIMALISISLPDYNTPMFGDSWITDKNFRMAQFASWARVFPANQAIKYFATDGKQGKAPNFLSKALSNAGFYTFRSGWDKNATVMVLKASPPGEFHAQPDNGTFELFIKGRNFTPDAGVFVYSGDEAIMKLRNWYRQTRIHSTLTLDNQNMVITKARQNKWETGNNLDVLTYTNPSYPNLDHQRSVLFINKKYFLVIDRAIGEATGNLGVHWQLKEDSNPVFDKTKNRVYTTYRDGNNLMIQSLNADRTSLNEEEGKVSYVYNKELKRPAFVFEKPKKNAGTQNFVSIVYPYDGQKAPEISIRENKGNDFEKGKLNLTLTINGKQQLVLVP	no significant changes	83	58	–
